Data from patent US9073974B2, “RGD-containing cyclic peptides” (The Regents of the University of California, priority 2009, dated 2015).
Numbered stars: 1 amine (or outer) side, 2 acyl side, 3 side chain; on linkers, the order of the positions; unused ones are H or OH. Bridge positions count the residues as written; N and C are the ends. Square brackets hold non-standard residues; d marks the D form. Ends that are not written are not given here. Peptide text beside a SMILES is read from it. * marks the point of attachment. Benzoyl(4-NO2) = O=C(c1ccc([N+](=O)[O-])cc1)*; Pro(5R-Ph) = O=C(O)[C@@H]1CC[C@H](c2ccccc2)N1; d1Nal = N[C@H](Cc1cccc2ccccc12)C(=O)O; dBta = N[C@H](Cc1csc2ccccc12)C(=O)O; Cyclohexylacetyl = O=C(CC1CCCCC1)*; X2 = O=C(C1(N[*:1])CCC(O)CC1)[*:2]; NMeR = CN[C@@H](CCCNC(=N)N)C(=O)O; dCit = NC(=O)NCCC[C@@H](N)C(=O)O; dPen = CC(C)(S)[C@@H](N)C(=O)O; dNMeV = CN[C@@H](C(=O)O)C(C)C; Pentanoyl = CCCCC(=O)*; βAla = NCCC(=O)O; Sar = CNCC(=O)O

B1: LXW9 (peptide)
peptide: CGRGD[dD][dV][dC]-NH2
modifications: disulfide 1-8; N-terminus assumed
SMILES: CC(C)[C@H]1NC(=O)[C@@H](CC(=O)O)NC(=O)[C@H](CC(=O)O)NC(=O)CNC(=O)[C@H](CCCNC(=N)N)NC(=O)CNC(=O)[C@@H](N)CSSC[C@H](C(N)=O)NC1=O
B2: LXW10 (peptide)
peptide: [dC]GRGD[dD][dV]C-NH2
modifications: disulfide 1-8; N-terminus assumed
SMILES: CC(C)[C@H]1NC(=O)[C@@H](CC(=O)O)NC(=O)[C@H](CC(=O)O)NC(=O)CNC(=O)[C@H](CCCNC(=N)N)NC(=O)CNC(=O)[C@H](N)CSSC[C@@H](C(N)=O)NC1=O
B3: LXW12 (peptide)
peptide: Ac-[dC]GRGD[dD][dV][dC]-NH2
modifications: disulfide 1-8
SMILES: CC(=O)N[C@@H]1CSSC[C@H](C(N)=O)NC(=O)[C@@H](C(C)C)NC(=O)[C@@H](CC(=O)O)NC(=O)[C@H](CC(=O)O)NC(=O)CNC(=O)[C@H](CCCNC(=N)N)NC(=O)CNC1=O
B4: LXW13 (peptide)
peptide: [dC][dA]RGD[dD][dV][dC]-NH2
modifications: disulfide 1-8; N-terminus assumed
SMILES: CC(C)[C@H]1NC(=O)[C@@H](CC(=O)O)NC(=O)[C@H](CC(=O)O)NC(=O)CNC(=O)[C@H](CCCNC(=N)N)NC(=O)[C@@H](C)NC(=O)[C@H](N)CSSC[C@H](C(N)=O)NC1=O
B5: LXW14 (peptide)
peptide: [dC][Sar]RGD[dD][dV][dC]-NH2
modifications: disulfide 1-8; N-terminus assumed
SMILES: CC(C)[C@H]1NC(=O)[C@@H](CC(=O)O)NC(=O)[C@H](CC(=O)O)NC(=O)CNC(=O)[C@H](CCCNC(=N)N)NC(=O)CN(C)C(=O)[C@H](N)CSSC[C@H](C(N)=O)NC1=O
B6: LXW15 (peptide)
peptide: [dC][βAla]RGD[dD][dV][dC]-NH2
modifications: disulfide 1-8; N-terminus assumed
SMILES: CC(C)[C@H]1NC(=O)[C@@H](CC(=O)O)NC(=O)[C@H](CC(=O)O)NC(=O)CNC(=O)[C@H](CCCNC(=N)N)NC(=O)CCNC(=O)[C@H](N)CSSC[C@H](C(N)=O)NC1=O
B7: LXW19 (peptide)
peptide: [dPen]GRGD[dD][dV][dPen]-NH2
modifications: disulfide 1-8; N-terminus assumed
SMILES: CC(C)[C@H]1NC(=O)[C@@H](CC(=O)O)NC(=O)[C@H](CC(=O)O)NC(=O)CNC(=O)[C@H](CCCNC(=N)N)NC(=O)CNC(=O)[C@H](N)C(C)(C)SSC(C)(C)[C@H](C(N)=O)NC1=O
B8: LXW20 (peptide)
peptide: [dPen]GRGD[dD][dV][dC]-NH2
modifications: disulfide 1-8; N-terminus assumed
SMILES: CC(C)[C@H]1NC(=O)[C@@H](CC(=O)O)NC(=O)[C@H](CC(=O)O)NC(=O)CNC(=O)[C@H](CCCNC(=N)N)NC(=O)CNC(=O)[C@H](N)C(C)(C)SSC[C@H](C(N)=O)NC1=O
B9: LXW21 (peptide)
peptide: [dC]GRGD[dD][dV][dPen]-NH2
modifications: disulfide 1-8; N-terminus assumed
SMILES: CC(C)[C@H]1NC(=O)[C@@H](CC(=O)O)NC(=O)[C@H](CC(=O)O)NC(=O)CNC(=O)[C@H](CCCNC(=N)N)NC(=O)CNC(=O)[C@H](N)CSSC(C)(C)[C@H](C(N)=O)NC1=O
B10: LXW22 (peptide)
peptide: [dC]GRGD[dD][dNMeV][dC]-NH2
modifications: disulfide 1-8; N-terminus assumed
SMILES: CC(C)[C@@H]1C(=O)N[C@@H](C(N)=O)CSSC[C@@H](N)C(=O)NCC(=O)N[C@@H](CCCNC(=N)N)C(=O)NCC(=O)N[C@@H](CC(=O)O)C(=O)N[C@H](CC(=O)O)C(=O)N1C
B11: LXW26 (peptide)
peptide: [dC]GRGD[dD][dI][dC]-NH2
modifications: disulfide 1-8; N-terminus assumed
SMILES: CC[C@@H](C)[C@H]1NC(=O)[C@@H](CC(=O)O)NC(=O)[C@H](CC(=O)O)NC(=O)CNC(=O)[C@H](CCCNC(=N)N)NC(=O)CNC(=O)[C@H](N)CSSC[C@H](C(N)=O)NC1=O
B12: LXW53 (peptide)
peptide: [dC]G[NMeR]GD[dD][dV][dC]-NH2
modifications: disulfide 1-8; N-terminus assumed
SMILES: CC(C)[C@H]1NC(=O)[C@@H](CC(=O)O)NC(=O)[C@H](CC(=O)O)NC(=O)CNC(=O)[C@H](CCCNC(=N)N)N(C)C(=O)CNC(=O)[C@H](N)CSSC[C@H](C(N)=O)NC1=O
B13: LXW56 (peptide)
peptide: {3‑amino propanoyl}-[dC]GRGD[dD][dV][dC]-NH2
modifications: disulfide 1-8
B14: LXW71 (peptide)
peptide: [dC]GRGD[dE][Pro(5R-Ph)][dC]-NH2
modifications: disulfide 1-8; N-terminus assumed
SMILES: N=C(N)NCCC[C@@H]1NC(=O)CNC(=O)[C@H](N)CSSC[C@H](C(N)=O)NC(=O)[C@@H]2CC[C@H](c3ccccc3)N2C(=O)[C@@H](CCC(=O)O)NC(=O)[C@H](CC(=O)O)NC(=O)CNC1=O
B15: LXW73 (peptide)
peptide: [dC]GRGD[dCit][dBta][dC]-NH2
modifications: disulfide 1-8; N-terminus assumed
SMILES: N=C(N)NCCC[C@@H]1NC(=O)CNC(=O)[C@H](N)CSSC[C@H](C(N)=O)NC(=O)[C@@H](Cc2csc3ccccc23)NC(=O)[C@@H](CCCNC(N)=O)NC(=O)[C@H](CC(=O)O)NC(=O)CNC1=O
B16: LXW77 (peptide)
peptide: Pentanoyl-[dC]GRGD[dD][dV][dC]-NH2
modifications: disulfide 1-8
SMILES: CCCCC(=O)N[C@@H]1CSSC[C@H](C(N)=O)NC(=O)[C@@H](C(C)C)NC(=O)[C@@H](CC(=O)O)NC(=O)[C@H](CC(=O)O)NC(=O)CNC(=O)[C@H](CCCNC(=N)N)NC(=O)CNC1=O
B17: LXW78 (peptide)
peptide: Cyclohexylacetyl-[dC]GRGD[dD][dV][dC]-NH2
modifications: disulfide 1-8
SMILES: CC(C)[C@H]1NC(=O)[C@@H](CC(=O)O)NC(=O)[C@H](CC(=O)O)NC(=O)CNC(=O)[C@H](CCCNC(=N)N)NC(=O)CNC(=O)[C@H](NC(=O)CC2CCCCC2)CSSC[C@H](C(N)=O)NC1=O
B18: LXW81 (peptide)
peptide: {p‑chlorophenyl acetyl}-[dC]GRGD[dD][dV][dC]-NH2
modifications: disulfide 1-8
B19: LXW82 (peptide)
peptide: {Benzoyl(4-NO2)}-[dC]GRGD[dD][dV][dC]-NH2
modifications: disulfide 1-8
SMILES: CC(C)[C@H]1NC(=O)[C@@H](CC(=O)O)NC(=O)[C@H](CC(=O)O)NC(=O)CNC(=O)[C@H](CCCNC(=N)N)NC(=O)CNC(=O)[C@H](NC(=O)c2ccc([N+](=O)[O-])cc2)CSSC[C@H](C(N)=O)NC1=O
B20: LXW90 (peptide)
peptide: {5‑bromo‑2‑furoyl}-[dC]GRGD[dD][dV][dC]-NH2
modifications: disulfide 1-8
B21: LXW92 (peptide)
peptide: nicotinyl-[dC]GRGD[dD][dV][dC]-NH2
modifications: disulfide 1-8
B22: LXW47 (peptide)
peptide: CGRGD[dD][d1Nal]C-NH2
modifications: disulfide 1-8; N-terminus assumed
SMILES: N=C(N)NCCC[C@@H]1NC(=O)CNC(=O)[C@@H](N)CSSC[C@@H](C(N)=O)NC(=O)[C@@H](Cc2cccc3ccccc23)NC(=O)[C@@H](CC(=O)O)NC(=O)[C@H](CC(=O)O)NC(=O)CNC1=O
notes: also called CGRGDd-DNal1-C

Assays:
αvβ3 integrin [1] = biological target: αvβ3 integrin (Homo sapiens, UniProt P05106+P06756); assay: Inhibition of biotinylated LXW7 binding to αvβ3-K562 cells (flow cytometry); parameters: expressed in transfected cells; host or cells: K562 (gift of Dr. Yoshikazu Takada, UC Davis); conditions: LXW9-92: inhibiting the binding of biotinylated LXW7 against αvβ3-K562 cells
Chain of αvβ3 integrin (Homo sapiens, UniProt P05106+P06756) (P06756 31-889 limits assumed): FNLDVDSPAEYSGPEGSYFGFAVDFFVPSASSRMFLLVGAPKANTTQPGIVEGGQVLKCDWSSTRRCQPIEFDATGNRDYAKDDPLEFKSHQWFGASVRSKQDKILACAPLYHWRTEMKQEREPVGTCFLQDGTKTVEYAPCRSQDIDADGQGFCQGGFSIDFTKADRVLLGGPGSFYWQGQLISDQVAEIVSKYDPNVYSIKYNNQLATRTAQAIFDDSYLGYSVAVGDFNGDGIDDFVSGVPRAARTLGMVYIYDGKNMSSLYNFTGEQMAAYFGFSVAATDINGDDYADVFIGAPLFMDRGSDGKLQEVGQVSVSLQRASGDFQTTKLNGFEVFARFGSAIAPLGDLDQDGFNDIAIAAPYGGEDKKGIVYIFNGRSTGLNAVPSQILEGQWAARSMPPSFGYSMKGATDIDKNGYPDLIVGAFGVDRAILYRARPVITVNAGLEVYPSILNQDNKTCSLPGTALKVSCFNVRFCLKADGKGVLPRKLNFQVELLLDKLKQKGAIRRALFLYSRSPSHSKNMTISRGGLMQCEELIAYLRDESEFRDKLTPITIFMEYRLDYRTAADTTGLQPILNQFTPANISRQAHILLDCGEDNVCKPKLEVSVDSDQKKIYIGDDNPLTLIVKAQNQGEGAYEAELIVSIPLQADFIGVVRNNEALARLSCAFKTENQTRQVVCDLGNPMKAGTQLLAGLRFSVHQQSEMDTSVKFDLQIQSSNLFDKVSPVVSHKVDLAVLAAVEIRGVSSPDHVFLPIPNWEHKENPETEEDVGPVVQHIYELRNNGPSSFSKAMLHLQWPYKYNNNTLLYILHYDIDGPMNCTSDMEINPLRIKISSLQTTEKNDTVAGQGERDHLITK
Chain of αvβ3 integrin (Homo sapiens, UniProt P05106+P06756) (P06756 891-1048 partner limits assumed): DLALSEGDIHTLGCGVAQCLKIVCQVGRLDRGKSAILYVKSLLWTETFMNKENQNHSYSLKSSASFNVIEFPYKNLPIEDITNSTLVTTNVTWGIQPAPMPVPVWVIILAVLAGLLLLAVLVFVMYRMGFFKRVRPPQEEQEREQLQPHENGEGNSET
Chain of αvβ3 integrin (Homo sapiens, UniProt P05106+P06756) (P05106 27-788): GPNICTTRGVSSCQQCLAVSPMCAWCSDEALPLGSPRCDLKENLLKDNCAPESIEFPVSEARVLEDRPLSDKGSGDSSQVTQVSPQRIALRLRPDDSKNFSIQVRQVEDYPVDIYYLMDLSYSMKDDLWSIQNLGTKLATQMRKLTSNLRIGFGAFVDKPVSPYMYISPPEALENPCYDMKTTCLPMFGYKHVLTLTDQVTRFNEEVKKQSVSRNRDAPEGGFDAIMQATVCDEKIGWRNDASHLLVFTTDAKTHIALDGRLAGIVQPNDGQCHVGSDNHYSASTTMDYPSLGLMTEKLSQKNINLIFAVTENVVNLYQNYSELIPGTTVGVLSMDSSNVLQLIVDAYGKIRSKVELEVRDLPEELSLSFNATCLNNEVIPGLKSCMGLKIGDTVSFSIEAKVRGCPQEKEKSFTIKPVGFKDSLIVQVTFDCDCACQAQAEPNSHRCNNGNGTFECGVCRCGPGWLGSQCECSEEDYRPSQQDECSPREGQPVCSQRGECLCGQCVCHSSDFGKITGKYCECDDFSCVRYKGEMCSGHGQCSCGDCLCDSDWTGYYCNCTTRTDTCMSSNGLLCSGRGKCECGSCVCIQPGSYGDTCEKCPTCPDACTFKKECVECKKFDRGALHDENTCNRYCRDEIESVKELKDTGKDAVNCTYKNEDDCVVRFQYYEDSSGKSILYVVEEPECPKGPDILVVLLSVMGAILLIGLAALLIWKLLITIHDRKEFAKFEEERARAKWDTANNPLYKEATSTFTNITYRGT
Method: The apparent IC50 were calculated using Graph Prism software (≦www.graphpad.com≧).
The samples were analyzed with Coulter XL-MCL flow cytometry. The histogram and mean fluorescence intensity (MFI) were determined. The apparent Kd, IC50 were calculated using Graph Prism software (≦www.graphpad.com≧).

αvβ3 integrin [2] = biological target: T1, αvβ3 integrin (human, UniProt P06756 31-1048; P05106 27-788); assay: flow cytometry, competition with biotinylated LXW7 on αvβ3-K562 cells; ++ = IC50 1-10 µM
T1 construct: whole, on cells; Same entry used for αvβ3-K562, U-87 MG and A375M cells; also called αvβ3-K562; αvβ3 transfected K562 cells
T1 sequence (P06756 31-1048, chain 1 of 2): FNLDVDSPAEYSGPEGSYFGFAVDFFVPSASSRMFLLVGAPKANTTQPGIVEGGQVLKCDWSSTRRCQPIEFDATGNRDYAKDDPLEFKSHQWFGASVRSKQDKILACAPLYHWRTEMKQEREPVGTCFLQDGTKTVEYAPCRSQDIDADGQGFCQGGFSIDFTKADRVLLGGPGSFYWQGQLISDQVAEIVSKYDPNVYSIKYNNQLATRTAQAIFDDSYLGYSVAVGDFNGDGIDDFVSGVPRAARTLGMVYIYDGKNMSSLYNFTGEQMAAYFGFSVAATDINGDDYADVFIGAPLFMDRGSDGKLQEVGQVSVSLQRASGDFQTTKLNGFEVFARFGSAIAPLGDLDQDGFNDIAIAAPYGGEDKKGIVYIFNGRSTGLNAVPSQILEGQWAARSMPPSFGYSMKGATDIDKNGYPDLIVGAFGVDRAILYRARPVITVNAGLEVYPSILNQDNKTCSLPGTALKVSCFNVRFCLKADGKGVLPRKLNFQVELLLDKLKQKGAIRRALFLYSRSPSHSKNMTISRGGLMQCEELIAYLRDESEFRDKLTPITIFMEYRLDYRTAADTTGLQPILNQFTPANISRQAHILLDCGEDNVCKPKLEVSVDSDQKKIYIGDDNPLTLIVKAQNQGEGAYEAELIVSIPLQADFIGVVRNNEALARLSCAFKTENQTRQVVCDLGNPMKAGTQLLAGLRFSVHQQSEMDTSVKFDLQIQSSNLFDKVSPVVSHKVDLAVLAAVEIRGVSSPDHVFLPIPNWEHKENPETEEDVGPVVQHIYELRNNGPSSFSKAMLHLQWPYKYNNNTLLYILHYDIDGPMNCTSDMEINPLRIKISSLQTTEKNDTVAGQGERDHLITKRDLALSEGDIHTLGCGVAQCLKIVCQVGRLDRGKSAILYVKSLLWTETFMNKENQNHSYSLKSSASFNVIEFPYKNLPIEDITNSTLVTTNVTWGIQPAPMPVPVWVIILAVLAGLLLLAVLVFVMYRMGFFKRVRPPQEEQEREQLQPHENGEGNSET
T1 sequence (P05106 27-788, chain 2 of 2): as the sequence (P05106 27-788) above

αvβ3 integrin [3] = biological target: T1, αvβ3 integrin; assay: flow cytometry, competition with biotinylated LXW7 on αvβ3-K562 cells; +++ = IC50 <1 µM

Molecule	IC50 (αvβ3 integrin [2]) [µM]	also measured
CC[C@@H](C)[C@H]1NC(=O)C2(CCC(O)CC2)NC(=O)[C@H](CC(=O)O)NC(=O)CNC(=O)[C@H](CCCNC(=N)N)NC(=O)CN(C)C(=O)[C@H](N)CSSC[C@H](C(N)=O)NC1=O (stereo partly shown) [LXW32, c-Sar-RGD-Ahch-i c] (H-[dC][Sar]RGD[X2][dI][dC]-NH2; disulfide 1-8)	–	IC50 (αvβ3 integrin [1]; LXW7 as internal reference): > 20 µM
CC[C@H]1NC(=O)[C@@H](CC(=O)O)NC(=O)[C@H](CC(=O)O)NC(=O)CNC(=O)[C@H](CCCNC(=N)N)NC(=O)CNC(=O)[C@H](N)CSSC[C@H](C(N)=O)NC1=O [LXW25, cGRGDd-DAbu-c]	–	IC50 (αvβ3 integrin [1]; class symbols): < 1 µM
N=C(N)NCCC[C@@H]1NC(=O)CNC(=O)[C@@H](N)CSSC[C@@H](C(N)=O)NC(=O)[C@@H](Cc2cscn2)NC(=O)[C@@H](CC(=O)O)NC(=O)[C@H](CC(=O)O)NC(=O)CNC1=O [LXW39, CGRGDd-DTha-C]	–	IC50 (αvβ3 integrin [1]; class symbols): > 10 µM
B1	1 to 10	–
B2	1 to 10	–
B3	–	IC50 (αvβ3 integrin [3]): < 1 µM
B4	1 to 10	–
B5	1 to 10	–
B6	1 to 10	–
B7	1 to 10	–
B8	1 to 10	–
B9	1 to 10	–
B10	–	IC50 (αvβ3 integrin [3]): < 1 µM
B11	1 to 10	–
B12	–	IC50 (αvβ3 integrin [3]): < 1 µM
B13	–	IC50 (αvβ3 integrin [3]): < 1 µM
B14	1 to 10	–
B15	1 to 10	–
B16	1 to 10	–
B17	1 to 10	–
B18	1 to 10	–
B19	1 to 10	–
B20	1 to 10	–
B21	1 to 10	–
B22	1 to 10	–
